In patent US20050112723A1, “Mammalian cell lines specifically deficient in O-linked glycosylation” (priority 2003, published 2005):
“Also recorded” adds a separate entry of the source.

Legend:
ldlD cells = conditions: Krieger et al. (1989); cited from earlier work
wild-type CHO cells = conditions: Krieger et al. (1989); cited from earlier work
[1] = test system: UDP-galNAc/UDP-glcNAc interconversion; experiment: In vitro assay for UDP-GalNAc, purified enzymes; assay type: biochemical; conditions: purified enzyme expressed in Pichia pastoris, FIG. 1
Method: (§1) In Vitro Assay for UDP-GalNAc: The radioactive method for detecting conversion of UDP-GalNAc to UDP-GIcNAc was performed essentially as described above for UDP-Gal, with the following assay components per 25 μl of reaction: 8.75 μl of premix (0.04 μCi of UDP-[^14C]GalNAc (ICN), 1.89 mM cold UDP-GalNAc, 28.6 mM pyruvate, 286 mM glycine, pH 8.7, 5 μl of 20 mM NAD), and 11.25 μl of protein diluted in Johnston buffer. Appropriate amounts of protein were used in each reaction to stay within the predetermined linear range of the assay. Assays were performed as for UDP-Gal, with a TLC run-time of 10 h and quantified as described for UDP-Gal.
(§2) For analysis by HPLC, protein samples were diluted with glycine buffer (100 mM glycine, pH 8.7) to a final volume of 7.5 μl. For each reaction, 2.5 μl of 20 mM NAD+, and 2.5 il of premix (3.3 mM UDP-GalNAc, and 500 mM glycine, pH 8.7) were added, for a final reaction volume of 12.5 μl. Assay mixtures were incubated at 37° C. for 30 min before stopping by addition of 2.5 volumes of ice-cold 100% methanol. Samples were vortexed, spun and dried as for UDP-Gal HPLC assays, and resuspended in 750 μl ddH2O. The suspension was added to an 0.2 μm nylon micro-spin filter tube, and spun for approximately 2.5 min at 4000 g. An aliquot of 20 μl was then analyzed by HPLC.
HPLC Analysis of Carbohydrates: Carbohydrate detection by HPLC was based on the methods of Smits (1998) and de Koning (1992). HPLC analysis was carried out on a DX600 HPLC system (Dionex, Sunnyvale, CA) consisting of a Dionex AS50 autosampler, a Dionex GP50 gradient pump, and a Dionex ED50 electrochemical detector. Carbohydrates were separated on a CarboPac PA10 column, 250×4 mm, with a CarboPac PA10 guard column, 50×4 mm, placed before the analysis column, and a borate trap placed after. […]
The ED50 detector consisted of a gold electrode and a pH-Ag/AgCl reference electrode for signal detection by integrated amperometry. […] Carbohydrates were quantified using PeakNet software version 6.4 (Dionex) and based on integration of peak areas with comparison to standards. […]

[2] = test system: UDP-gal/UDP-glc interconversion; experiment: In vitro UDP-gal activity assays on protein extracts from transfected ldlD cells; assay type: biochemical; conditions: protein extracts of stably transfected ldlD cells, CMV promoter, FIG. 3 and 5
Method: (§3) In Vitro Assays for UDP-Gal: Aliquots of each purified enzyme from Example lwere stored in 50% glycerol with 4 mM NAD+ in liquid nitrogen, while crude extracts were stored at −80° C. until needed. All crude extracts were passed through Micro biospin 30 columns (Biorad) before being assayed for enzyme activity. Assays to determine the level of GALE activity with respect to UDP-Gal were performed essentially as previously described in Thoden et al. J Biol Chem Jul 26; 277(30):27528-34 (2002). […] For radioactive assay, conversion of UDP-Gal to UDP-Glc was measured in a 12.5-μl reaction containing 2.5 μl of premix (0.05 μCi of UDP-[^14C]Gal (Amersham Biosciences), […] cold UDP-Gal, 0.2 mM glycine buffer, pH 8.7), 2.5 μl of 20 mM NAD+, and 7.5 μl of purified protein diluted in Johnston buffer (20 mM HEPES/KOH, pH 7.5, 1 mM dithiothreitol, and 0.3 mg of bovine serum albumin/ml). Appropriate amounts of protein were used in each reaction in order to stay within the predetermined linear range of the assay. Reactions were incubated at 37° C for 30 min and were stopped by boiling at 100° C. for 10 min. […] Images were visualized with a Typhoon 9200 variable mode imager and quantified using ImageQuant software (both from Amersham Biosciences). Percent conversion was determined by dividing the product signal by the total signal and multiplying by 100. […] A 15 μl aliquot was then analyzed by HPLC. […]

[3] = test system: UDP-galNAc/UDP-glcNAc interconversion; experiment: UDP-GalNAc activity of GALE alleles expressed in ldlD cells; assay type: biochemical; conditions: enzyme expressed in ldlD cells, FIG. 6
Method: as §1, §2
In this experiment, ldlD cells expressing WThGALE were used as a positive control, and ldlD cells expressing backbone alone were used as a negative control.

[4] = test system: UDP-gal/UDP-glc interconversion; experiment: In vitro assay for UDP-Gal, purified enzymes; assay type: biochemical; conditions: purified enzyme expressed in Pichia pastoris, FIG. 1
Method: as §3

ability to interconvert UDP-GalNAc and UDP-GlcNAc [1] | UDP-GalNAc activity, % of that seen in WT hGALE [1] [%] | Molecule | galactose concentration at which cells experience toxicity (ldlD cells) | galactose levels with no apparent toxicity (wild-type CHO cells) [mM] | activity with regard to UDP-gal/UDP-glc interconversion [2] | activity with regard to UDP-galNAc/UDP-glcNAc interconversion [3] | UDP-Gal activity (UDP-Gal/UDP-Glc interconversion) [4] | activity with regard to UDP-galNAc/UDP-glcNAc interconversion ([3]; listed as C307Y hGALE)
 |  | O=C[C@H](O)[C@@H](O)[C@@H](O)[C@H](O)CO [galactose] | greater than 75 μM | ≤ 10 |  |  |  | 
no ability |  | WTeGALE: wild-type E. coli GALE (UDP-galactose 4-epimerase) (protein, Eschesichia Coli) MRVLVTGGSGYIGSHTCVQLLQNGHDVIILDNLCNSKRSVLPVIERLGGKHPTFVEGDIRNEALMTEILHDHAIDTVIHFAGLKAVGESVQKPLEYYDNNVNGTLRLISAMRAANVKNFIFSSSATVYGDQPKIPYVESFPTGTPQSPYGKSKLMVEQILTDLQKAQPDWSIALLRYFNPVGAHPSGDMGEDPQGIPNNLMPYIAQVAVGRRDSLAIFGNDYPTEDGTGVRDYIHVMDLADGHVVAMEKLANKPGVHIYNLGAGVGNSVLDVVNAFSKACGKPVNYHFAPRREGDLPAYWADASKADRELNWRVTRTLDEMAQDTWHWQSRHPQGYPD |  |  | active | not significantly active |  | 
well |  | WThGALE: wild type human GALE (UDP-galactose 4-epimerase) (protein, UniProt Q14376 1-348, looked up) UDP-glucose 4-epimerase: MAEKVLVTGGAGYIGSHTVLELLEAGYLPVVIDNFHNAFRGGGSLPESLRRVQELTGRSVEFEEMDILDQGALQRLFKKYSFMAVIHFAGLKAVGESVQKPLDYYRVNLTGTIQLLEIMKAHGVKNLVFSSSATVYGNPQYLPLDEAHPTGGCTNPYGKSKFFIEEMIRDLCQADKTWNAVLLRYFNPTGAHASGCIGEDPQGIPNNLMPYVSQVAIGRREALNVFGNDYDTEDGTGVRDYIHVVDLAKGHIAALRKLKEQCGCRIYNLGTGTGYSVLQMVQAMEKASGKKIPYKVVARREGDVAACYANPSLAQEELGWTAALGLDRMCEDLWRWQKQNPSGFGTQA |  |  |  | very active | well | 
 | 2.30 | C307YhGALE: wild type hGALE except a tyrosine residue has been substituted for cysteine at position 307 (protein, Human polypeptide) MAEKVLVTGGAGYIGSHTVLELLEAGYLPVVIDNFHNAFRGGGSLPESLRRVQELTGRSVEFEEMDILDQGALQRLFKKYSFMAVIHFAGLKAVGESVQKPLDYYRVNLTGTIQLLEIMKAHGVKNLVFSSSATVYGNPQYLPLDEAHPTGGCTNPYGKSKFFIEEMIRDLCQADKTWNAVLLRYFNPTGAHASGCIGEDPQGIPNNLMPYVSQVAIGRREALNVFGNDYDTEDGTGVRDYIHVVDLAKGHIAALRKLKEQCGCRIYNLGTGTGYSVLQMVQAMEKASGKKIPYKVVARREGDVAAYYANPSLAQEELGWTAALGLDRMCEDLWRWQKQNPSGFGTQA |  |  | active | reduced to levels close to those seen in ldld cells expressing backbone alone; also recorded: reduced to levels close to those seen in IdiD cells expressing backbone alone | maintains wildtype levels | not significantly active
